The target in assay [1] is T1, full-length PTP HSCF with an N-terminal hemagglutinin epitope tag (UniProt Q61152 1-453).
T1 construct: range 1-453; In vitro translated or expressed in COS cells; also called the phosphatase; wild type PTP HSCF
T1 sequence (looked up): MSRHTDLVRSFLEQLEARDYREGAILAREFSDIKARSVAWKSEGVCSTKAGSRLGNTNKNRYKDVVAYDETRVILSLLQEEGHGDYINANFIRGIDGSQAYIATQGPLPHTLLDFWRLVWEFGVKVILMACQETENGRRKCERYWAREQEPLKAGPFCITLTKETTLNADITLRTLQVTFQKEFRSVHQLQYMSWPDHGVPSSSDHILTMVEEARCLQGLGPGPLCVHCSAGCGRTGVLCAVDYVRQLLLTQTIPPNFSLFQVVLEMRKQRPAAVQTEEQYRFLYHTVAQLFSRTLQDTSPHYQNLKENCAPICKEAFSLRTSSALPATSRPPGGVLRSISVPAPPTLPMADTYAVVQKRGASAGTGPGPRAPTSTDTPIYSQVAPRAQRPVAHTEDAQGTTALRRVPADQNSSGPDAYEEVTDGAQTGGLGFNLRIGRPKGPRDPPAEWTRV
Briefly: co-immunoprecipitation from co-transfected COS cells. From the text: The resultant precipitates were resolved on SDS polyacrylamide gels and probed with anti-FLAG antibody (to detect PST PIP), anti-HA antibody (to detect PTP HSCF) and anti-pY (anti-phosphotyrosine antibody) to detect this modified residue on these proteins. Note that the $W232A$ mutant of PST PIP is neither coprecipitated with PTP HSCF nor is it "substrate trapped" (as determined by hyperphosphorylation) by the dominant negative (C-S) form of PTP HSCF, while the wild type form of the protein (PST PIP wt) is found in a complex with precipitated PTP HSCF and is hyperphosphorylated ("substrate trapped" (Jia et al., *Science* 268(5218):1754–1758 (1995); Garton et al., *Mol. Cell. Biol.* 16(11):6408–6418 (1996); Flint et al., *Proc. Natl. Acad. Sci. USA* 94(5):1680–1685 (1997); Spencer et al. (1997), supra)) by dominant negative (C-S) PTP HSCF.
In vitro binding analyses between various PTP HSCF and PST PIP constructs were performed as previously described (Spencer et al, (1997), supra). Briefly, plasmids were transcribed and translated in vitro using the TnT Rabbit Reticulocyte Lysate System (Promega). […] Samples were than reacted with GST fusion proteins at various concentrations, and the bound proteins were centrifuged using glutathione-sepharose beads and analyzed on SDS polyacrylamide gels. […]

The test system of a further assay is 3T3 cells. In words: Overexpression of PSTPIP in transfected 3T3 cells, confocal microscopy. The assay is classed as cell-based, murine. The conditions noted are these: overexpression under cytomegalovirus promoter. The protocol:
Rabbit polyclonal antibodies were produced against a GST-PSTPIP fusion protein. The complete PSTPIP-GST fusion protein was purified on GSH-sepharose and injected intramuscularly at 2 sites with 200 μg fusion protein and subcutaneously at multiple sites with a total of 300 μg PSTPIP-GST fusion protein in Complete Freunds Adjuvant. Rabbits were boosted every 3 weeks with 100 μg fusion protein in Incomplete Freunds. 15 ml of rabbit sera was reacted with 0.5 mg PSTPIP-GST-GSH-Sepharose for 3 hours at 4° C. with gentle rotation. The resin was collected by centrifugation and washed with 10 column volumes of PBS. Immunoglobulin was eluted from the affinity matrix with 100 mM acetic acid, 500 mM NaCl, neutralized with NaOH, and then dialyzed overnight with PBS. NIH 3T3 cells were seeded at 100,000 cells per chamber slide and allowed to adhere overnight. The cells were transfected using Lipofectamine™ (2 ug pRK.PIP.FLAG.C/12 ul Lipofectamine in 0.8 ml OPTI-MEM) for 5 hours. The DNA/Lipofectamine™ solution was removed and fresh serum containing medium added. […] Cells were stained with 0.4 μg/ml rabbit anti-PIP or 0.4 μg/ml rabbit IgG and detected with Cy3-corjugated goat anti-rabbit. […]

B1: W232A mutant of PST PIP, C-terminal FLAG (other)
chain: MMAQLQFRDAFWCRDFTAHTGYEVLLQRLLDGRKMCKDVEELLRQRAQAEERYGKELVQIARKAGGQTEMNSLRTSFDSLKQQTENVGSAHIQLALALREELRSLEEFRERQKEQRKKYEAIMDRVQKSKLSLYKKTMESKKAYDQKCRDADDAEQAFERVSANGHQKQVEKSQNKAKQCKESATEAERVYRQNIEQLERARTEWEQEHRTTCEAFQLQEFDRLTILRNALAVHCNQLSMQCVKDDELYEEVRLTLEGCDVEGDINGFIQSKSTGREPPAPVPYQNYYDREVTPLIGSPSIQPSCGVIKRFSGLLHGSPKTTPSAPAASTETLTPTPERNELVYASIEVQATQGNLNSSAQDYRALYDYTAQNSDELDISAGDILAVILEGEDGWWTVERNGQRGFVPGSYLEKLDYKDDDDK
notes: In vitro translated or expressed in COS cells; also called W232A PST PIP; PST PIP with an alanine replacement mutation at tryptophan232
With B1, the binding result in assay [1] was “no binding”.

B2: PSTPIP: murine PST Phosphatase Interacting Protein, 415 residues (SEQ ID NO:1) (protein)
chain: MMAQLQFRDAFWCRDFTAHTGYEVLLQRLLDGRKMCKDVEELLRQRAQAEERYGKELVQIARKAGGQTEMNSLRTSFDSLKQQTENVGSAHIQLALALREELRSLEEFRERQKEQRKKYEAIMDRVQKSKLSLYKKTMESKKAYDQKCRDADDAEQAFERVSANGHQKQVEKSQNKAKQCKESATEAERVYRQNIEQLERARTEWEQEHRTTCEAFQLQEFDRLTILRNALWVHCNQLSMQCVKDDELYEEVRLTLEGCDVEGDINGFIQSKSTGREPPAPVPYQNYYDREVTPLIGSPSIQPSCGVIKRFSGLLHGSPKTTPSAPAASTETLTPTPERNELVYASIEVQATQGNLNSSAQDYRALYDYTAQNSDELDISAGDILAVILEGEDGWWTVERNGQRGFVPGSYLEKL
modifications: Mus Musculus
B2: the “cell morphology on overexpression” value in the assay with 3T3 cells is reported as “induced a remarkable morphological change in a high percentage of cells”.
